Legend:
[1] = target: T1, biotinylated extracellular domains of human CD123 with C-terminal Fc tag and Avi tag (bio.hCD123-Fc(kih)-Avi) (human, UniProt P26951 19-303, biotinylated with BirA-GST (Avi tag)); experiment: HTRF, full-length biotinylated hCD123-Fc(kih)-Avi
T1 construct: Bought from Evitria; the second Fc chain and the number of CD123 arms are not described; also called biotinylated hCD123; recombinant human CD123 target; not shown: Avi tag
T1 sequence: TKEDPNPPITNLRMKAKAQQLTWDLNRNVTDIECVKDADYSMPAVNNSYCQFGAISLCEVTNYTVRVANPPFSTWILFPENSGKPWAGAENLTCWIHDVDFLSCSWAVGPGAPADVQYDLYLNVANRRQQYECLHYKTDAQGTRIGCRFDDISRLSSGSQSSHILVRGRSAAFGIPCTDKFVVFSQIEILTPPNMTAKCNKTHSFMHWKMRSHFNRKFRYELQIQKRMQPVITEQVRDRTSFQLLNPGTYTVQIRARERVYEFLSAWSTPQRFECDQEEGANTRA
Text: (§1) The CD123 epitope bound by CD123-specific ankyrin repeat proteins of the invention was investigated using truncated CD123 target protein as well as competition ELISA and HTRF against the benchmark control molecule flotetuzumab-similar (CD3-CD123 specific DART®, purchased from Evitria) and the natural ligand IL-3 (purchased by Peprotech), First, full-length (NTD/D2/D3 domains) and truncated (D2/D3 domains) CD123 targets (purchased from Evitria) were applied in an HTRF binding assay in which they were incubated with DARPin® protein #1 and binding was detected by using either the HTRF reagents Anti 6His-d2 and Streptavidin-Tb for full-length CD123 or hIgG-d2 and anti-His-Tb for truncated CD123. […] The excitation of the reaction was measured at 340 nm and emission at 665 nm and the background at 340 nM and 620 nM respectively. […] Binding was detected by using either the HTRF reagents Anti 6His-d2 and Streptavidin-Tb for full-length CD123 or hIgG-d2 and anti-His-Tb for truncated CD123 target.

[2] = target: T2, truncated CD123 target (D2/D3 domains), D2-D3-hCD123 (human, UniProt P26951 101-305); experiment: HTRF, purified DARPin protein with truncated D2-D3-hCD123, hIgG-d2 and anti-His-Tb
T2 construct: domain: D2/D3; Bought from Evitria; Detected with hIgG-d2, so it probably carries an Fc tag; also called truncated target (D2-D3-hCD123)
T2 sequence (looked up): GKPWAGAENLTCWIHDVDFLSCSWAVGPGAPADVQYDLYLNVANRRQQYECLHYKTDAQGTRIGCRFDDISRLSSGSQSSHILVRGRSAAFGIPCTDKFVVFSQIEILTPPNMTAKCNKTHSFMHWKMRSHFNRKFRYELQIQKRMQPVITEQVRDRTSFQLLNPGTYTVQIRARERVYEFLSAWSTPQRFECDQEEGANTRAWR
Text: as §1

B1: DARPin® protein #20 (non-binding DARPin molecule) (designed binder)
chain: DLGKKLLEAARAGQDDEVRELLKAGADVNAKDKDGYTPLHLAAREGHLEIVEVLLKAGADVNAKDKDGYTPLHLAAREGHLEIVEVLLKAGADVNAQDKSGKTPADLAADAGHEDIAEVLQKAA
notes: Control
B1: no binding [1]; no binding [2].

Reference: patent publication US20240150475A1 (Molecular Partners, published 2024)
